Measurements as given in patent publication US20140206609A1 (Sanofi, published 2014).
*1 amine or outer side, *2 acyl side, *3 side chain or, on linkers, in order; H or OH if unused. Where no end group is shown, it is not given here. Side-chain parts run from the residue outwards. [ ]: non-standard residue; d: D form. The star is where a group is joined. γGlu = O=C(O)[C@H](CCC(=O)[*:2])N[*:1]; Stearoyl = CCCCCCCCCCCCCCCCCC(=O)*; Palmitoyl = CCCCCCCCCCCCCCCC(=O)*; Aib = CC(C)(N)C(=O)O; βAla = NCCC(=O)O

T1: human GIP receptor (human, UniProt P48546 22-466)
T1 sequence (looked up): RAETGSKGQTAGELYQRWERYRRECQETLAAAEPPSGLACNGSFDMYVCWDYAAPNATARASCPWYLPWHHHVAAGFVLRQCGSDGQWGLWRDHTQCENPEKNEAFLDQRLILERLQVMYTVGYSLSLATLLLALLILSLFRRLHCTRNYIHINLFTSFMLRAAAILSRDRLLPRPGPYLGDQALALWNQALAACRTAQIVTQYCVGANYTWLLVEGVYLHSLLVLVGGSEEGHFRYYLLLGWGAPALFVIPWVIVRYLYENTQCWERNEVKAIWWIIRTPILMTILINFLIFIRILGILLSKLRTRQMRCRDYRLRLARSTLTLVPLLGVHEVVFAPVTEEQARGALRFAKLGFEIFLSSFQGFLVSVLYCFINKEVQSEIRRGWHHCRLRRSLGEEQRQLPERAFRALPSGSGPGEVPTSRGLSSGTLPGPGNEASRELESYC


What was measured:
Experiment in all cases: cell-based or functional assay
human GLP-1 receptor = human GLP-1 receptor (human, UniProt P43220 24-463)
human GIP receptor = target: T1, human GIP receptor
human glucagon receptor = human glucagon receptor (human, UniProt P47871 26-477)
Chain of human glucagon receptor (P47871 26-477): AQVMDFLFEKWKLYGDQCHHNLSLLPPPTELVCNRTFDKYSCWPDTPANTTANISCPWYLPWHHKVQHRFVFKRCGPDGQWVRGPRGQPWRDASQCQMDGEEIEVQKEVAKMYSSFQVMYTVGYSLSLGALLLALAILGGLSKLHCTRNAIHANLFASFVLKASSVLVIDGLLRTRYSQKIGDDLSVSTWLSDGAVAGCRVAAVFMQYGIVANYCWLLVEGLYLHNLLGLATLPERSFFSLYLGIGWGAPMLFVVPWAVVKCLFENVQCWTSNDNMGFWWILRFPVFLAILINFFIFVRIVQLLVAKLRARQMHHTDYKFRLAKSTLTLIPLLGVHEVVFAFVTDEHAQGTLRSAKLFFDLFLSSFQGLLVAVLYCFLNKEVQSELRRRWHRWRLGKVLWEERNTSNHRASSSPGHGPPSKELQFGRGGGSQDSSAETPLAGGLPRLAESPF

Row | Binder | EC50 hGLP-1 R [pM] (human GLP-1 receptor) | EC50 hGIP R [pM] (human GIP receptor) | EC50 hGLUC R [pM] (human glucagon receptor)
1 | Y[Aib]QGTFTSDLSIQK([γGlu-Palmitoyl])EKRAA[Aib]EFIEWLKNTGPSSGAPPPS-NH2 (N-terminus assumed; SMILES CCCCCCCCCCCCCCCC(=O)N[C@@H](CCC(=O)NCCCC[C@H](NC(=O)[C@H](CCC(N)=O)NC(=O)[C@@H](NC(=O)[C@H](CO)NC(=O)[C@H](CC(C)C)NC(=O)[C@H](CC(=O)O)NC(=O)[C@H](CO)NC(=O)[C@@H](NC(=O)[C@H](Cc1ccccc1)NC(=O)[C@@H](NC(=O)CNC(=O)[C@H](CCC(N)=O)NC(=O)C(C)(C)NC(=O)[C@@H](N)Cc1ccc(O)cc1)[C@@H](C)O)[C@@H](C)O)[C@@H](C)CC)C(=O)N[C@@H](CCC(=O)O)C(=O)N[C@@H](CCCCN)C(=O)N[C@@H](CCCNC(=N)N)C(=O)N[C@@H](C)C(=O)N[C@@H](C)C(=O)NC(C)(C)C(=O)N[C@@H](CCC(=O)O)C(=O)N[C@@H](Cc1ccccc1)C(=O)N[C@H](C(=O)N[C@@H](CCC(=O)O)C(=O)N[C@@H](Cc1c[nH]c2ccccc12)C(=O)N[C@@H](CC(C)C)C(=O)N[C@@H](CCCCN)C(=O)N[C@@H](CC(N)=O)C(=O)N[C@H](C(=O)NCC(=O)N1CCC[C@H]1C(=O)N[C@@H](CO)C(=O)N[C@@H](CO)C(=O)NCC(=O)N[C@@H](C)C(=O)N1CCC[C@H]1C(=O)N1CCC[C@H]1C(=O)N1CCC[C@H]1C(=O)N[C@@H](CO)C(N)=O)[C@@H](C)O)[C@@H](C)CC)C(=O)O) [SEQ ID NO: 8] | 5.3 | 9.8 | 18.3
2 | Y[Aib]QGTFTSDLSIQK([γGlu-Palmitoyl])DKRAA[Aib]EFIEWLKNTGPSSGAPPPS-NH2 (N-terminus assumed; SMILES CCCCCCCCCCCCCCCC(=O)N[C@@H](CCC(=O)NCCCC[C@H](NC(=O)[C@H](CCC(N)=O)NC(=O)[C@@H](NC(=O)[C@H](CO)NC(=O)[C@H](CC(C)C)NC(=O)[C@H](CC(=O)O)NC(=O)[C@H](CO)NC(=O)[C@@H](NC(=O)[C@H](Cc1ccccc1)NC(=O)[C@@H](NC(=O)CNC(=O)[C@H](CCC(N)=O)NC(=O)C(C)(C)NC(=O)[C@@H](N)Cc1ccc(O)cc1)[C@@H](C)O)[C@@H](C)O)[C@@H](C)CC)C(=O)N[C@@H](CC(=O)O)C(=O)N[C@@H](CCCCN)C(=O)N[C@@H](CCCNC(=N)N)C(=O)N[C@@H](C)C(=O)N[C@@H](C)C(=O)NC(C)(C)C(=O)N[C@@H](CCC(=O)O)C(=O)N[C@@H](Cc1ccccc1)C(=O)N[C@H](C(=O)N[C@@H](CCC(=O)O)C(=O)N[C@@H](Cc1c[nH]c2ccccc12)C(=O)N[C@@H](CC(C)C)C(=O)N[C@@H](CCCCN)C(=O)N[C@@H](CC(N)=O)C(=O)N[C@H](C(=O)NCC(=O)N1CCC[C@H]1C(=O)N[C@@H](CO)C(=O)N[C@@H](CO)C(=O)NCC(=O)N[C@@H](C)C(=O)N1CCC[C@H]1C(=O)N1CCC[C@H]1C(=O)N1CCC[C@H]1C(=O)N[C@@H](CO)C(N)=O)[C@@H](C)O)[C@@H](C)CC)C(=O)O) [SEQ ID NO: 38] | 6.7 | 11.2 | 11.4
3 | Y[Aib]EGTFTSDLSIQK([γGlu-Palmitoyl])ESRAAQEFIEWLKAGGPSSGAPPPS-NH2 (N-terminus assumed; SMILES CCCCCCCCCCCCCCCC(=O)N[C@@H](CCC(=O)NCCCC[C@H](NC(=O)[C@H](CCC(N)=O)NC(=O)[C@@H](NC(=O)[C@H](CO)NC(=O)[C@H](CC(C)C)NC(=O)[C@H](CC(=O)O)NC(=O)[C@H](CO)NC(=O)[C@@H](NC(=O)[C@H](Cc1ccccc1)NC(=O)[C@@H](NC(=O)CNC(=O)[C@H](CCC(=O)O)NC(=O)C(C)(C)NC(=O)[C@@H](N)Cc1ccc(O)cc1)[C@@H](C)O)[C@@H](C)O)[C@@H](C)CC)C(=O)N[C@@H](CCC(=O)O)C(=O)N[C@@H](CO)C(=O)N[C@@H](CCCNC(=N)N)C(=O)N[C@@H](C)C(=O)N[C@@H](C)C(=O)N[C@@H](CCC(N)=O)C(=O)N[C@@H](CCC(=O)O)C(=O)N[C@@H](Cc1ccccc1)C(=O)N[C@H](C(=O)N[C@@H](CCC(=O)O)C(=O)N[C@@H](Cc1c[nH]c2ccccc12)C(=O)N[C@@H](CC(C)C)C(=O)N[C@@H](CCCCN)C(=O)N[C@@H](C)C(=O)NCC(=O)NCC(=O)N1CCC[C@H]1C(=O)N[C@@H](CO)C(=O)N[C@@H](CO)C(=O)NCC(=O)N[C@@H](C)C(=O)N1CCC[C@H]1C(=O)N1CCC[C@H]1C(=O)N1CCC[C@H]1C(=O)N[C@@H](CO)C(N)=O)[C@@H](C)CC)C(=O)O) [SEQ ID NO: 39] | 4.3 | 8.5 | 19300
4 | Y[Aib]EGTFTSDLSIQK([γGlu-Palmitoyl])ESRAAQDFIEWLKAGGPSSGAPPPS-NH2 (N-terminus assumed; SMILES CCCCCCCCCCCCCCCC(=O)N[C@@H](CCC(=O)NCCCC[C@H](NC(=O)[C@H](CCC(N)=O)NC(=O)[C@@H](NC(=O)[C@H](CO)NC(=O)[C@H](CC(C)C)NC(=O)[C@H](CC(=O)O)NC(=O)[C@H](CO)NC(=O)[C@@H](NC(=O)[C@H](Cc1ccccc1)NC(=O)[C@@H](NC(=O)CNC(=O)[C@H](CCC(=O)O)NC(=O)C(C)(C)NC(=O)[C@@H](N)Cc1ccc(O)cc1)[C@@H](C)O)[C@@H](C)O)[C@@H](C)CC)C(=O)N[C@@H](CCC(=O)O)C(=O)N[C@@H](CO)C(=O)N[C@@H](CCCNC(=N)N)C(=O)N[C@@H](C)C(=O)N[C@@H](C)C(=O)N[C@@H](CCC(N)=O)C(=O)N[C@@H](CC(=O)O)C(=O)N[C@@H](Cc1ccccc1)C(=O)N[C@H](C(=O)N[C@@H](CCC(=O)O)C(=O)N[C@@H](Cc1c[nH]c2ccccc12)C(=O)N[C@@H](CC(C)C)C(=O)N[C@@H](CCCCN)C(=O)N[C@@H](C)C(=O)NCC(=O)NCC(=O)N1CCC[C@H]1C(=O)N[C@@H](CO)C(=O)N[C@@H](CO)C(=O)NCC(=O)N[C@@H](C)C(=O)N1CCC[C@H]1C(=O)N1CCC[C@H]1C(=O)N1CCC[C@H]1C(=O)N[C@@H](CO)C(N)=O)[C@@H](C)CC)C(=O)O) [SEQ ID NO: 10] | 13.2 | 15.1 | 40000
5 | Y[Aib]EGTFTSDLSIQK([γGlu-Stearoyl])EKRAA[Aib]EFIEWLKNTGPSSGAPPPS-NH2 (N-terminus assumed; SMILES CCCCCCCCCCCCCCCCCC(=O)N[C@@H](CCC(=O)NCCCC[C@H](NC(=O)[C@H](CCC(N)=O)NC(=O)[C@@H](NC(=O)[C@H](CO)NC(=O)[C@H](CC(C)C)NC(=O)[C@H](CC(=O)O)NC(=O)[C@H](CO)NC(=O)[C@@H](NC(=O)[C@H](Cc1ccccc1)NC(=O)[C@@H](NC(=O)CNC(=O)[C@H](CCC(=O)O)NC(=O)C(C)(C)NC(=O)[C@@H](N)Cc1ccc(O)cc1)[C@@H](C)O)[C@@H](C)O)[C@@H](C)CC)C(=O)N[C@@H](CCC(=O)O)C(=O)N[C@@H](CCCCN)C(=O)N[C@@H](CCCNC(=N)N)C(=O)N[C@@H](C)C(=O)N[C@@H](C)C(=O)NC(C)(C)C(=O)N[C@@H](CCC(=O)O)C(=O)N[C@@H](Cc1ccccc1)C(=O)N[C@H](C(=O)N[C@@H](CCC(=O)O)C(=O)N[C@@H](Cc1c[nH]c2ccccc12)C(=O)N[C@@H](CC(C)C)C(=O)N[C@@H](CCCCN)C(=O)N[C@@H](CC(N)=O)C(=O)N[C@H](C(=O)NCC(=O)N1CCC[C@H]1C(=O)N[C@@H](CO)C(=O)N[C@@H](CO)C(=O)NCC(=O)N[C@@H](C)C(=O)N1CCC[C@H]1C(=O)N1CCC[C@H]1C(=O)N1CCC[C@H]1C(=O)N[C@@H](CO)C(N)=O)[C@@H](C)O)[C@@H](C)CC)C(=O)O) [SEQ ID NO: 15] |  | 8.2 | 5810
6 | Y[Aib]EGTFTSDLSIQK([βAla-βAla-Stearoyl])EKRAA[Aib]EFIEWLKNTGPSSGAPPPS-NH2 (N-terminus assumed; SMILES CCCCCCCCCCCCCCCCCC(=O)NCCC(=O)NCCC(=O)NCCCC[C@H](NC(=O)[C@H](CCC(N)=O)NC(=O)[C@@H](NC(=O)[C@H](CO)NC(=O)[C@H](CC(C)C)NC(=O)[C@H](CC(=O)O)NC(=O)[C@H](CO)NC(=O)[C@@H](NC(=O)[C@H](Cc1ccccc1)NC(=O)[C@@H](NC(=O)CNC(=O)[C@H](CCC(=O)O)NC(=O)C(C)(C)NC(=O)[C@@H](N)Cc1ccc(O)cc1)[C@@H](C)O)[C@@H](C)O)[C@@H](C)CC)C(=O)N[C@@H](CCC(=O)O)C(=O)N[C@@H](CCCCN)C(=O)N[C@@H](CCCNC(=N)N)C(=O)N[C@@H](C)C(=O)N[C@@H](C)C(=O)NC(C)(C)C(=O)N[C@@H](CCC(=O)O)C(=O)N[C@@H](Cc1ccccc1)C(=O)N[C@H](C(=O)N[C@@H](CCC(=O)O)C(=O)N[C@@H](Cc1c[nH]c2ccccc12)C(=O)N[C@@H](CC(C)C)C(=O)N[C@@H](CCCCN)C(=O)N[C@@H](CC(N)=O)C(=O)N[C@H](C(=O)NCC(=O)N1CCC[C@H]1C(=O)N[C@@H](CO)C(=O)N[C@@H](CO)C(=O)NCC(=O)N[C@@H](C)C(=O)N1CCC[C@H]1C(=O)N1CCC[C@H]1C(=O)N1CCC[C@H]1C(=O)N[C@@H](CO)C(N)=O)[C@@H](C)O)[C@@H](C)CC) [SEQ ID NO: 18] | 7.6 |  | 4950
